Experimental data taken from publication PMC3683045.
pKd: −log10 of the molar value.

Tested on: preKARS2 (cytosolic precursor of human mitochondrial lysyl-tRNA synthetase) (human), Q15046-2
Experiment: EMSA
Settings: 10 mM Mg2+; unmodified T7 transcript; EMSA: 20 mM Tris-HCl pH 7.5, 150 mM NaCl, 10 mM MgCl2, 5 mM DTT, 10% glycerol, 0.1 mg/ml BSA, 30 C, 15 min; native 8% PAGE in 0.5x Tris-borate pH 8.3, 5% …

Chain of preKARS2 (cytosolic precursor of human mitochondrial lysyl-tRNA synthetase) (human), Q15046-2 (Q15046 other isoform, or with tags, fused parts or gaps): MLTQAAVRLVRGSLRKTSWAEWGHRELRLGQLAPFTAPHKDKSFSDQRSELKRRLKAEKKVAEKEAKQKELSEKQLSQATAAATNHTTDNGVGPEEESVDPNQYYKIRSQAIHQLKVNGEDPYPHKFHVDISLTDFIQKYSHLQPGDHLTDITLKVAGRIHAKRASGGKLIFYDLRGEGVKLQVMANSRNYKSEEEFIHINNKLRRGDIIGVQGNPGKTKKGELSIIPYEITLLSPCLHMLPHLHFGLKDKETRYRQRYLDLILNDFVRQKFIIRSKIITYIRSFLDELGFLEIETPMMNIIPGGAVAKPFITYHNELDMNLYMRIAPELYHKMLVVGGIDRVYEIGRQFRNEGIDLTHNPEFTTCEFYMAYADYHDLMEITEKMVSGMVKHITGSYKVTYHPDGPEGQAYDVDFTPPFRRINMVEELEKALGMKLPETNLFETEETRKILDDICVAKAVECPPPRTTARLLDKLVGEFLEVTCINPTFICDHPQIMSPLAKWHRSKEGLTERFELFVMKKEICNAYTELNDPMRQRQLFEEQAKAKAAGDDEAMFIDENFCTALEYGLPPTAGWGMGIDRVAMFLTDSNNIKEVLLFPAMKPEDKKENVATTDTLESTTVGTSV

**Q.** With tRK1 (yeast tRNALys CUU) as the substance, how does the pKd read?
**A.** Its pKd is 6.52.
